US12685772B2, “Methods for treating CAPRIN-1 expressing cancers” (TORAY INDUSTRIES, INC., priority 2020, dated 2026)

Molecular target: T1, CAPRIN-1 protein (Homo sapiens, UniProt Q14444)
T1 construct: made in house
T1 sequence (Q14444 1-709): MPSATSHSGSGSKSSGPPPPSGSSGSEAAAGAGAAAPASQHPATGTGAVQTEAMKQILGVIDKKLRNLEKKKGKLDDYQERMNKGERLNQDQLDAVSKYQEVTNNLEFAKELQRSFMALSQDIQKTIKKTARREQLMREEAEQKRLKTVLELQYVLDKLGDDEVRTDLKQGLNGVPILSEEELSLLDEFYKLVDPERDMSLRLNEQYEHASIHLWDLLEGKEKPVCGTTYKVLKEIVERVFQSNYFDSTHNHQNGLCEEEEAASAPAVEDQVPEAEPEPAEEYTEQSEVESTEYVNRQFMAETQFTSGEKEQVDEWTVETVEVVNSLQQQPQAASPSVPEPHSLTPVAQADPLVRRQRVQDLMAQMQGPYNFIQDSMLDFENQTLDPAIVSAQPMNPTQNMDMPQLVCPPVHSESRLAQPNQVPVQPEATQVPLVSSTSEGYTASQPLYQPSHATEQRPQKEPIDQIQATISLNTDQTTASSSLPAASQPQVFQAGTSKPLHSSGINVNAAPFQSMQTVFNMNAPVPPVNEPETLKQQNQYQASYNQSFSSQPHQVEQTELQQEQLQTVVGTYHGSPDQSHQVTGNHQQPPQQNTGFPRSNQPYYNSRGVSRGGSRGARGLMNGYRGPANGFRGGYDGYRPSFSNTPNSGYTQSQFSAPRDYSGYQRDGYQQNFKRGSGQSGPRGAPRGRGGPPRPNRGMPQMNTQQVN
Assay: ELISA using CAPRIN-1 protein immobilized on a plate
Format: binding
Protocol: One hundred (100) μg of a human CAPRIN-1 recombinant protein produced according to Example 3 of WO2010/016526 was mixed with a MPL+TDM adjuvant (Sigma) in an amount equivalent to that of the recombinant protein. The mixture was used as an antigen solution per mouse. The antigen solution was administered intraperitoneally to 6-week-old Balb/c mice (Japan SLC Inc.) and then further administered 3 times […] every week for completion of immunization. A spleen was removed on day 3 after the final immunization and then ground between two sterilized glass slides. Spleen cells were obtained by washing with PBS (−) (Nissui Pharmatheutical), centrifuging at 1500 rpm for 10 minutes, and removing supernatant, therein these were repeated 3 times. The obtained spleen cells were mixed with mouse myeloma cell SP2/0 (purchased from ATCC) at a ratio of 10:1. The PEG solution prepared by mixing 200 μl of RPMI1640 medium containing 10% FBS heated at 37° C. and 800 μl of PEG1500 (Boehringer) was added to the cells. The solution was incubated for 5 minutes for cell fusion. Centrifugation was performed at 1700 rpm for 5 minutes to remove supernatants. […] Absorbance at 450 nm and absorbance at 595 nm were measured using an absorption spectrometer. As a result, a plurality of hybridomas producing antibodies with high absorbances were selected. […]

- specific reactivity to CAPRIN-1 protein: exhibiting reactivity
B1: monoclonal antibody against CAPRIN-1 described in WO2013/125630: mouse monoclonal antibody with heavy-chain variable region SEQ ID NO: 114 and light-chain variable region SEQ ID NO: 115 (antibody, listed as Mus musculus, V domains shown)
VH: GPELVKPGASVKMSCKASGYTFTSYVMHWVKQKPGQGLEWIGYINPYNDGTKYNEKFKGKATLTSDKSSSTAYMELSSLTSEDSAVYYCARRYYYGSSGGYFDVWAQDHVRT
VL: DVQITQSPSYLAASPGETITINCRASKSISKYLAWYQEKPGKTNKLLIYSGSTLQSGIPSRFSGSGSGTDFTLTISSLEPEDFAMYYCQQHNEYPYTFGGGTKLEIKR
